Assay results from patent publication US20230226151A1 (NGM BIOPHARMACEUTICALS, published 2023).

Target: Mouse FGFR4/β-klotho complex co-expressed in L6 cells (mouse, UniProt Q03142 17-799; Q99N32 1-1043)
Test: cell-based or functional assay

Sequence of Mouse FGFR4/β-klotho complex co-expressed in L6 cells (Q03142 17-799, chain 1 of 2): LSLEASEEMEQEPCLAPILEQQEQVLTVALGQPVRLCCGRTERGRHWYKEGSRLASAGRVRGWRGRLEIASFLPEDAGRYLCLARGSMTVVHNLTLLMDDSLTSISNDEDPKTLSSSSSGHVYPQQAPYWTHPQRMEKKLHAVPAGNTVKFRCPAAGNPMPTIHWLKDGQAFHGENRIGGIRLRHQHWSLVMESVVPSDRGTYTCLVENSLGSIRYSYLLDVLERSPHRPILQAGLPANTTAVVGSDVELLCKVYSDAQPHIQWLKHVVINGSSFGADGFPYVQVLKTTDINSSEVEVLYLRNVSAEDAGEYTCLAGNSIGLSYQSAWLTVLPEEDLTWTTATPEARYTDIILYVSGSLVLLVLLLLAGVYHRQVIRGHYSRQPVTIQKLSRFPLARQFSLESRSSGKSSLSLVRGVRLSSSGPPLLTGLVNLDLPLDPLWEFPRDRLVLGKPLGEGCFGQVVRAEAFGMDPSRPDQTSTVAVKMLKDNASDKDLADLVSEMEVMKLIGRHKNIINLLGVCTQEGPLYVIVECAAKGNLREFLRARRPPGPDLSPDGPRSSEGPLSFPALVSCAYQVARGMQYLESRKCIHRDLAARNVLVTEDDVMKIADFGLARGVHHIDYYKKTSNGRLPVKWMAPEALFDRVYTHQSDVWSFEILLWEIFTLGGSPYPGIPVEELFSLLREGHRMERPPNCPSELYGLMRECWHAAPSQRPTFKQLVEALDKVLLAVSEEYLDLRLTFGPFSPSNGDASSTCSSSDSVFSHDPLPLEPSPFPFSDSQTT
Sequence of Mouse FGFR4/β-klotho complex co-expressed in L6 cells (Q99N32 whole entry, chain 2 of 2): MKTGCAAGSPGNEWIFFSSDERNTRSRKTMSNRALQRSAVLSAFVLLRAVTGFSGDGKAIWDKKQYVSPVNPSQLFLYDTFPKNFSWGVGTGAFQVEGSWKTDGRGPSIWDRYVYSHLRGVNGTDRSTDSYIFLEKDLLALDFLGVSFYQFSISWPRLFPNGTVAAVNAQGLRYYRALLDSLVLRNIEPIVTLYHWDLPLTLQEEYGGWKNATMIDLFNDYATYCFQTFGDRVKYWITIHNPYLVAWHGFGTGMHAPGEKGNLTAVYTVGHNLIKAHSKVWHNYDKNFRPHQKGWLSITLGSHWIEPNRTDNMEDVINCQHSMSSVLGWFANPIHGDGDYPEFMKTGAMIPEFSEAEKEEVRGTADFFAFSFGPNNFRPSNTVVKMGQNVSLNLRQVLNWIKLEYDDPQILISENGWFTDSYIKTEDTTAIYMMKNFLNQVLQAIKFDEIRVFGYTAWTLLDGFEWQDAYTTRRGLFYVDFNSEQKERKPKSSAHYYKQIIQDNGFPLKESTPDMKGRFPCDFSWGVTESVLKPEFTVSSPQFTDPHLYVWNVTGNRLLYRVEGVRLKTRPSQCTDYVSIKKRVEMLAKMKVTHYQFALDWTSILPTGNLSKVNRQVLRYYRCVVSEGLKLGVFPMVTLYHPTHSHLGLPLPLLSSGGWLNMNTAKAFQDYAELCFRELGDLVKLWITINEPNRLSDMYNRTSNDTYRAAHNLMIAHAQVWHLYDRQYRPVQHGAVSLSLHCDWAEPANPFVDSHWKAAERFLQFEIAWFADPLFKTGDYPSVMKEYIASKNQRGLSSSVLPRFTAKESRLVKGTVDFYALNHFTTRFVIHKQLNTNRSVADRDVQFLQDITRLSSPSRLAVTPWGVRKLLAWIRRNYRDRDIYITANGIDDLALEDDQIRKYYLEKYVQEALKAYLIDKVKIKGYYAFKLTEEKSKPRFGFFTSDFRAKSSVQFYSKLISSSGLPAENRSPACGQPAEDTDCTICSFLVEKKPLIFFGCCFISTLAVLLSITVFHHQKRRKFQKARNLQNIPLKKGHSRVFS

EC50 (pM), ELK1 luciferase reporter in L6 cells: 38.3 pM | Emax (fold potentiation), ELK1 luciferase reporter in L6 cells: 1.85 fold potentiation
B1: M70 (FGF19 variant) (ligand)
chain: MRDSSPLVHYGWGDPIRLRHLYTSGPHGLSSCFLRIRADGVVDCARGQSAHSLLEIKAVALRTVAIKGVHSVRYLCMGADGKMQGLLQYSEEDCAFEEEIRPDGYNVYRSEKHRLPVSLSSAKQRQLYKNRGFLPLSHFLPMLPMVPEEPEDLRGHLESDMFSSPLETDSMDPFGLVTGLEAVRSPSFEK
